Article PMC7040040 (Scientific Reports, 2020)

Experiments:
Conditions in all cases: both partners purified
Aβ(3–40) monomer = target: T1, Aβ(3–40) monomer (Homo sapiens, UniProt P05067); experiment: SPR; Biacore 3000; antibody captured on a CM5 chip via immobilised anti-mouse or anti-human antibody; monomeric Aβ peptides injected (240 µl, 30 µl/min), running buffer HBS-EP; 1:1 Langmuir binding model
T1 construct: amyloid beta peptide, residues 3-40, N-terminal glutamate not cyclised

Aβ(1–40) monomer = target: T2, Aβ(1–40) monomer (Homo sapiens, UniProt P05067); experiment: as above
T2 construct: amyloid beta peptide, residues 1-40

[1] = target: T3, oligomers (AADL) of 100% Aβ(1–42) (Homo sapiens, UniProt P05067); experiment: SPR; Biacore 3000; Aβ oligomers or fibrils captured with pE3-Aβ-specific antibodies (pure pE3-Aβ aggregates) or an N-terminal non-pE3-Aβ-specific antibody (Aβ(1–42) aggregates and mixtures); PBD-C06 antibody injected; Single Cycle Kinetics model; bivalent binding
T3 construct: amyloid beta peptide, residues 1-42; also called Mixed Oligomers (AADL) 0: 100; oligomers consisting of 100% Aβ(1–42); source: 2500 µM Aβ(1–42) added to Ham's F-12 medium, 18 hours at 4 °C, supernatant after centrifugation

fibrils of 100% Aβ(1–42) = target: T4, fibrils of 100% Aβ(1–42) (Homo sapiens, UniProt P05067); experiment: as above
T4 construct: amyloid beta peptide, residues 1-42; also called Mixed Fibrils 0: 100; source: 350 µM Aβ(1–42), diluted to 50 µM, fibrillated 7 days at 37 °C, pH 8.7

- Kd (Aβ(3–40) monomer): 796 nM
- koff (Aβ(3–40) monomer): 0.0025 s⁻¹
- kon (Aβ(3–40) monomer): 3200 M⁻¹ s⁻¹
- Kd (Aβ(1–40) monomer): 6310 nM
- koff (Aβ(1–40) monomer): 0.0025 s⁻¹
- kon (Aβ(1–40) monomer): 390 M⁻¹ s⁻¹
- Kd [1]: 2.02 nM
- Kd (fibrils of 100% Aβ(1–42)): 1.81 nM
B1: murine PBD-C06 precursor antibody (antibody, V domains shown)
VH: EVQLQQSGPELVKPGASMKISCKASGYSFTGYTMNWVKQSHGKNLEWIGLINPYNGVTRYNQKFKGKATLIVDKSSSTAYMELLSLTSEDSAVYYCTREAKREWDETYWGQGTLVTVSA
VL: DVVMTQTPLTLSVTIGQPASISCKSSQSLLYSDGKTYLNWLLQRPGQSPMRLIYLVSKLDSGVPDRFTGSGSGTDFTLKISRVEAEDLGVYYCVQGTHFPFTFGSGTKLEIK
notes: murine hybridoma precursor VH; murine heavy chain constant region; murine hybridoma precursor VL; murine light chain constant region, not described; Whole antibody; also called murine precursor antibody
